# In patent US20170362329A1 (PELICAN THERAPEUTICS, published 2017):
# Where two headings read alike, the source gives them in different places.
# T1: WBP330.hProl.ECD.hF (human, UniProt Q93038 25-199)
# T1 construct: extracellular domain; also called human TNFRSF25 (SPR ligand)
# T1 sequence (looked up): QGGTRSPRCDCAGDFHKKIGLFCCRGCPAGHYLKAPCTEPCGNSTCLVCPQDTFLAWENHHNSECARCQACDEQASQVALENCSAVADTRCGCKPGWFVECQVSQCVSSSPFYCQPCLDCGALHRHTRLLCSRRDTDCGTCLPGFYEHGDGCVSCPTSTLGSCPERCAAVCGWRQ
# T2: human TNFRSF25-Fc (human, UniProt Q93038 25-199, limits assumed)
# T2 construct: also called human TNFRSF25 fusion protein; not shown: Fc part
# T2 sequence (looked up): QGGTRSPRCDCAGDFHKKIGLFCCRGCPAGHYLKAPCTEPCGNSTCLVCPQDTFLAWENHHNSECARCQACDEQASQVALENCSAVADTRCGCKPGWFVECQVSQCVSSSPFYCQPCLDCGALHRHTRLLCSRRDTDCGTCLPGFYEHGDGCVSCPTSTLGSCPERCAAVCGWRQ
# How the values were obtained:
# [1] = target: human TNFRSF25 (expressed on P815 cells) (human) (UniProt Q93038); assay: cell-based or functional assay
# WBP330.hProl.ECD.hF = target: T1, WBP330.hProl.ECD.hF; assay: SPR (ProteOn), TNFRSF25 ECD fusion as ligand, antibody as analyte, bivalent analyte model
# Description: Affinity of the indicated humanized TNFRSF25 antibodies was determined by surface plasmon resonance (SPR) using the ProteOn method (FIG. 7 and TABLE 3).
# [2] = target: human TNFRSF25 (expressed on P815 cells) (human), Q93038; assay: cell-based or functional assay
# human TNFRSF25-Fc = target: T2, human TNFRSF25-Fc; assay: ELISA, binding of PTX-25 to human TNFRSF25-Fc, OD 450 nm
# [3] = target: human TNFRSF25 (expressed on P815 cells) (human) (UniProt Q93038); assay: flow cytometry on P815 cells expressing human TNFRSF25
# [4] = target: human TNFRSF25 (expressed on P815 cells) (human) (UniProt Q93038); assay: cell-based or functional assay; remark: listed apart in the source
# [5] = target: human TNFRSF25 (expressed on P815 cells) (human) (UniProt Q93038); assay: flow cytometry on P815 cells expressing human TNFRSF25 (mean fluorescence intensity)
molecule,measurement,setting,value
hTL1A-hFc chimera (from UniProt O95150 72-251) (Fc fusion),EC50 of induced caspase activity,[1],0.283 µg/mL
"WBP330.cAb1.hIgG1 (35783) (antibody, V domains shown, also called cAb1 (35783); chimeric antibody) VH: EVQLVESGGGLSQPGNSLQLSCEASGFTFSNHDLNWVRQAPGKGLEWVAYISSASGLISYADAVRGRFTISRDNAKNSLFLQMNNLKSEDTAMYYCARDPPYSGLYALDFWGQGTQVTVSS VL: QPVLTQSPSASASLSGSVKLTCTLSSELSSYTIVWYQQRPDKAPKYVMYLKSDGSHSKGDGIPDRFSGSSSGAHRYLSISNVQSEDDATYFCGAGYTLAGQYGWVFGSGTKVTVL",Kd,WBP330.hProl.ECD.hF,58.1 nM
same,koff,WBP330.hProl.ECD.hF,0.00576 s⁻¹
same,kon,WBP330.hProl.ECD.hF,99000 M⁻¹ s⁻¹
same,"EC50 (nM), caspase activation in P815 cells expressing human TNFRSF25",[2],71.4 nM
same,EC50 of induced caspase activity,[2],0.121 µg/mL
"PTX-25 (human TNFRSF25-specific monoclonal antibody, pre-humanized parental) (antibody, V domains shown, also called Pre-humanized Parental PTX-25; human TNFRSF25-specific mAb) VH: EVQLVESGGGLSQPGNSLQLSCEASGFTFSNHDLNWVRQAPGKGLEWVAYISSASGLISYADAVRGRFTISRDNAKNSLFLQMNNLKSEDTAMYYCARDPPYSGLYALDFWGQGTQVTVSS VL: QPVLTQSPSASASLSGSVKLTCTLSSELSSYTIVWYQQRPDKAPKYVMYLKSDGSHSKGDGIPDRFSGSSSGAHRYLSISNVQSEDDATYFCGAGYTLAGQYGWVFGSGTKVTVL",EC50 (read off the curve),human TNFRSF25-Fc,~0.04 µg/mL
same,IC50,human TNFRSF25-Fc,5.17 nM
"WBP330BMK1 (antibody, V domains shown) VH: EVQLVESGGGLSQPGNSLQLSCEASGFTFSNHDLNWVRQAPGKGLEWVAYISSASGLISYADAVRGRFTISRDNAKNSLFLQMNNLKSEDTAMYYCARDPPYSGLYALDFWGQGTQVTVSS VL: QPVLTQSPSASASLSGSVKLTCTLSSELSSYTIVWYQQRPDKAPKYVMYLKSDGSHSKGDGIPDRFSGSSSGAHRYLSISNVQSEDDATYFCGAGYTLAGQYGWVFGSGTKVTVL",Kd,WBP330.hProl.ECD.hF,254 nM
same,koff,WBP330.hProl.ECD.hF,0.0252 s⁻¹
same,kon,WBP330.hProl.ECD.hF,99000 M⁻¹ s⁻¹
same,Kd,[3],73.5 nM
same,"EC50 (nM), caspase activation in P815 cells expressing human TNFRSF25",[4],19.6 nM
same,EC50 of induced caspase activity,[4],0.0192 µg/mL
same,Bmax,[5],246
